The source of these data is patent US20210228731A1, “ANTIBODY DRUG CONJUGATES FOR ABLATING HEMATOPOIETIC STEM CELLS” (NOVARTIS AG, priority 2018, published 2021).

The data set relates to human peripheral blood HSC-derived mast cells. Kind of data set: In vitro human mast cell degranulation assay (beta-hexosaminidase release). It counts as cell-based. The settings on record: test agents 0.006-25 nM cross-linked with antibody specific for the Fab portion; absence of SCF. The protocol: Mature mast cells were generated using CD34+ progenitors from mobilized peripheral blood. CD34+ cells were cultured in StemSpan SFEM (StemCell Technologies) supplemented with recombinant human stem cell factor (rhSCF, 50 ng/ml, Gibco), recombinant human interleukin 6 (rhIL-6, 50 ng/ml, Gibco), recombinant human IL-3 (30 ng/ml, Peprotech), GlutaMAX ([…], Gibco), penicillin (100 U/ml, Hyclone) and streptomycin (100 μg/ml, Hyclone). Recombinant hll-3 was added only during the first week of the culture. After the third week, half of the medium was replaced weekly with fresh medium containing rhIL-6 (50 ng/ml) and rhSCF (50 ng/ml). Mature mast cell purity was evaluated by surface staining of high-affinity IgE receptor (FCεRI, eBioscience) and CD117 (BD). […]
The derived mast cells were washed once to remove SCF, and the required amount of cells was incubated overnight in mast cell medium containing rhIL-6 (50 ng/ml) with or without rhSCF (50 ng/ml). […] During this incubation, p-nitro-N-acetyl-pi-D-gluosamine (pNAG, Sigma) buffer was prepared by sonicating 3.5 mg/ml of pNAG in citrate buffer (40 mM citric acid, 20 mM sodium phosphate dibasic, pH 4.5). β-hexosaminidase release was measured by mixing 20 μl of cell supernatant with 40 μl of pNAG solution in a flat-bottom 384-well plate. […] Absorbance was read using a plate reader at λ=405 nm with reference filter at λ=620 nm. […]

B1: anti-cKIT Fab4 (HC-E152C): anti-cKIT Fab fragment with heavy chain E152C (Cys Fab HC SEQ ID NO: 136) (antibody)
heavy: QVQLQQSGPGLVKPSQTLSLTCAISGDSVSTNSAAWNWIRQSPSRGLEWLGRIYYRSQWLNDYAVSVKSRITINPDTSKNQFSLQLNSVTPEDTAVYYCARQLTYPYTVYHKALDVWGQGTLVTVSSASTKGPSVFPLAPSSKSTSGGTAALGCLVKDYFPCPVTVSWNSGALTSGVHTFPAVLQSSGLYSLSSVVTVPSSSLGTQTYICNVNHKPSNTKVDKRVEPKSCD
modifications: light chain not cited
Regarding B1, the “mast cell degranulation (beta-hexosaminidase release) when cross-linked” value is on record as “no mast cell degranulation was triggered”.
